1 molecule from PMC7506551 (2020) can be followed below.

The target of this assay is SMARCB1 (aa 169–385) (human, UniProt Q12824 169-385). The experiment in a line: ITC; second site (Kd2, two-site model). For orientation: Isothermal titration calorimetry measures the heat released or taken up as one component is titrated into another.
Sequence of SMARCB1 (aa 169–385) (Q12824 169-385): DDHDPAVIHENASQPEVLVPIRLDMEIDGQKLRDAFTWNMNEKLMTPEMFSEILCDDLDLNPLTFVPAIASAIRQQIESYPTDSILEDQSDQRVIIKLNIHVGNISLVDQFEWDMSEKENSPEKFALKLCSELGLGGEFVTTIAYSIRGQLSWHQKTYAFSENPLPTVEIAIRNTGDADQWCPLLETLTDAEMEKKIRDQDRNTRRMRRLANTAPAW

B1: SMARCC2 (aa 325–518) (domain or fragment)
chain: TKSKRGHREEEQEDLTKDMDEPSPVPNVEEVTLPKTVNTKKDSESAPVKGGTMTDLDEQEDESMETTGKDEDENSTGNKGEQTKNPDLHEDNVTEQTHHIIIPSYAAWFDYNSVHAIERRALPEFFNGKNKSKTPEIYLAYRNFMIDTYRLNPQEYLTSTACRRNLAGDVCAIMRVHAFLEQWGLINYQVDAES
On to B1, for which the dissociation constant (Kd) (in general, the free concentration of one partner at which half of the binding sites on the other are occupied at equilibrium, for simple one-to-one binding) was found to be 1.96 nM.
